Laboratory results from CN112794907A (ANHUI ANKE BIOTECHNOLOGY GROUP CO LTD, dated 2021).
One block for each binder: values may come before it.

Assays:
rhOX40-Avi-His-bio [1] = molecular target: T1, rhOX40-Avi-His-bio (human, UniProt P43489 29-214, biotin joined covalently to the Avi tag by BirA); assay: SPR, Biacore T200, rhOX40-Avi-His-bio on SA chip, antibody as analyte
T1 construct: range 29-214; Biotinylated form of rhOX40-Avi-His, captured on the SA chip for SPR; also called 生物素标记的抗原rhOX40-Avi-His-bio; huOX40; not shown: Avi tag and His tag from the vector pCD-Avi-His
T1 sequence (looked up): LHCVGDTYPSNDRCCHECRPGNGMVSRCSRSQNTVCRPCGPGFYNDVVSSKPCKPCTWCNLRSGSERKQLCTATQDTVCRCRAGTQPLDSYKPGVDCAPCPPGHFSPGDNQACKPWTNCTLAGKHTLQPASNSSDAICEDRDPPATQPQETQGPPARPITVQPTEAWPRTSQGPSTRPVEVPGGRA

rhOX40-Avi-His-bio [2] = molecular target: T1, rhOX40-Avi-His-bio; assay: SPR

Kd (rhOX40-Avi-His-bio [1]): ~0.776 nM | fold increase of affinity over B11 (rhOX40-Avi-His-bio [2]): ~650 倍
B1: 全人源抗huOX40单克隆抗体B11-11 (antibody, IgG1, V domains shown)
VH: DVQLQESGPGLVKPSETLSLTCTVSGGSISADGFIWGWIRQPPGKGLEWIGGITTNGGYTDYNPSLKSRVTISVDTSKNQFSLKLSSVTAADTSVYYCARWFWDVSYGFDTWGQGTLVTVSS
VL: DIVMTQSPLSLPVTPGEPASISCRSSQSVDSDEYSFMHWYLQKPGQAPQLLIYRTDQRASGVPTRFSGSGSGTDFTLKISRVEAEDVGVYYCQQTPTYTFGQGTKLEIKR

Kd (rhOX40-Avi-His-bio [1]): ~0.2 nM | fold increase of affinity over A2 (rhOX40-Avi-His-bio [2]): ~540 倍
B2: 全人源抗huOX40单克隆抗体A2-1 (antibody, IgG1, V domains shown)
VH: DVQLQESGPGLVKPSETLSLTCTVSGDSVSDSGAYWVWIRQPPGKGLEWIGTIAPARGDTLYNPSLKSRVTISVDTSKNQFSLKLSSVTAADTSVYYCARDVWYIDYWGQGTLVTVSS
VL: DIVLTQSPATLSLSPGERATLSCRASEDIGTWLAWYQQKPGQAPRLLIYHTDLRATGVPTRFSGSGSGTDFTLTISSLEPEDFAVYYCQQYASYPLTFGQGTKLEIK
